Test [1] deals with HEK293 GP73-His full length cells. Description: Furin blockage experiment: sGP73 in cell culture supernatant (Up-converting Phosphor Technology). As to conditions: 31.3 ug/ml or 62.5 ug/ml; after 96 hours. Format: cell-based, human. Here is the method: FIG. 23 Measurement of sGP73 in cell culture supernatant after treatment of 293HEK GP73-His full length cells with Bevacizumab or G2-2opti (IgG1). Furin cleavage is a prerequisite for sGP73 to appear in the supernatant.
HEK293 GP73-His full length cells were seeded in 96 well plates 1500 cells per well and cultured overnight. Next day, medium was changed and cells were treated with Bevacizumab 31.3 ug/ml, Bevacizumab 62.5 ug/ml, G2-2opti(IgG1) 31.3 ug/ml or G2-2opti (IgG1) 62.5 ug/ml. To examine furin cleavage inhibition the respective antibody concentrations were chosen in a range that had no impact on cell proliferation. After 96 hours the supernatants were collected for measurement of sGP73 exploiting the Up-converting Phosphor Technology (UCP) and the remaining cell layer was used in a proliferation assay with PrestoBlue reagent (Thermofisher) described in Example 8.
For sGP73 detection each supernatant was diluted 1:1 in Hotgen dilution buffer containing an anti GP73 UCP labelled antibody. […] GP73 concentrations were deduced from differences of light emission at the C and T line measured by inserting the test cassette into the Hotgen Up-converting Phosphor Technology (UCP) Analyser.

Test [2] deals with HuH7 (human hepatocellular carcinoma). Description: Cell viability / proliferation with PrestoBlue reagent. Format: cell-based. The conditions noted are these: 0.125 mg/ml to 2 mg/ml, after 72 hrs. The procedure: FIG. 13A Proliferation of HuH7 cells (human hepatocellular carcinoma) after treatment with different antibodies. HuH7 cells were treated with G2-2, G2-2 plus Cetuximab, mG2-2, mG2-2 plus Cetuximab, Cetuximab or control antibody each in increasing concentrations from 0.125 mg/ml to 2 mg/ml. Proliferating cells were measured after 72 hrs. […] This effect was independent of the Fc part i.e. human IgG1 in G2-2 or murin IgG2a in mG2-2 as described in Example 8.
FIG. 13B Proliferation of HuH7 cells (human hepatocellular carcinoma), 4T1 cells (murin breast carcinoma) and CaCo2 cells (human colorectal carcinoma) after treatment with different antibodies. The three cell lines were treated with G2-1, G2-1 plus Cetuximab, Cetuximab, Bevacizumab or Bevacizumab plus Cetuximab 2 mg/ml total. Proliferating cells were measured after 72 hrs.
Cells from the cell lines HuH7 (human hepatocellular carcinoma), 4T1 (murin breast carcinoma) and CaCo2 (human colorectal carcinoma) were cultured under standard conditions in Dulbecco's modified Eagle Medium (DMEM) supplemented with 10% fetal calf serum (FCS) at 37° C. with 5% CO2. […] Fluorescence was read at 615 nm to quantify cell viability. […]
To test the effect of G2-1 on different cell lines, HuH7, 4T1 and CaCo2 cells were transferred to 96 well plates. […] Cell viability was quantified after 72 hours using PrestoBlue reagent and measuring the fluorescence at 615 nm.

The subject of test [3] is HuH7 cells. Nature of the test: Internalization of pHrodo Green labeled antibodies after pre-incubation with conditioned media containing soluble GP73. The conditions noted are these: 10 ug/ml pHrodo Green labeled antibody pre-incubated over night, 24 h at 37° C. Format: cell-based, human. Here is the method:
Antibody internalization was measured by FACS using the pH-sensitive dye pHrodo Green coupled to each antibody. […] The internalization of G2-2 that binds to rGP73 is not altered as described in Example 6.
Labeled antibodies were purified by size exclusion (40K MWCO). A non binding Isotype Antibody that was not labeled with pHrodo® Green STP Ester (Iso.) was used as control for background fluorescence. 10 ug/ml of each antibody was pre-incubated over night at 4° C. with either fresh culture media or conditioned media. As conditioned media served either supernatant from HEK 293 or HEK 293 GP73-myc cells cultured for 72 hours, that was dialyzed (10 k MWCO) against 1 L fresh media each. To confirm the presence of secreted soluble GP73 after dialysis supernatants were analysed by Western Blot using an anti-myc antibody. 300 ul/well of each pre-incubated antibody was given to 0.6×10^6HuH7 cells growing in 24 well plates for 24 h at 37° C. and 5% CO2. Cells were washed and analysed by FACS.

Entries after “also recorded” stand apart in the source; their conditions may differ.

Turning to “Bevacizumab: the isotype control [reference compound]”, the “sGP73 in cell culture supernatant” value in test [1] is given as “no influence on sGP73 levels”.

B1: G2-2opti (IgG1): G2-2 optimized for expression in mammalian cells by directed mutagenesis of framework; CDRs untouched (antibody, V domains shown)
VH: QVQLVQSGGGVVQPGRSLRLSCAASGFTFSSYGMHWVRQAPGKGLEWVAVISYDGSNKYYADSVKGRFTISRDNSKNTLYLQMNSLRAEDTAVYYCAREGSAGMDVWGQGTTVTVSS
VL: QAVLTQPSSLSASPGASASLTCTLRSDISVGFHRIYWYQQKPGSPPQYLLRYKSDSDKQQGSGVPSRFSGSKDASANAGILLISGLQSDDEADYYCVIWHTSGVVFGGGTKLTVL
B1: in test [1], the “sGP73 in cell culture supernatant” value is given as “decreases sGP73 secretion into supernatant; also recorded: reduce GP73 concentration”.

B2: mG2-2: G2-2 variable regions with murine IgG2a heavy chain and human Igk light chain constant regions (antibody)
heavy: EVQLLQSGGGVVQPGRSLRLSCAASGFTFSSYGMSWVRQAPGKGLEWVAVISYDGSNKYYADSVKGRFTISRDNSKNTLYLQMNSLRAEDTAVYYCAREGSAGMDVWGQGTTVTVSSASTTAPSVYPLAPVCGDTTGSSVTLGCLVKGYFPEPVTLTWNSGSLSSGVHTFPAVLQSDLYTLSSSVTVTSSTWPSQSITCNVAHPASSTKVDKKIEPRGPTIKPCPPCKCPAPNLLGGPSVFIFPPKIKDVLMISLSPIVTCVVVDVSEDDPDVQISWFVNNVEVHTAQTQTHREDYNSTLRVVSALPIQHQDWMSGKEFKCKVNNKDLPAPIERTISKPKGSVRAPQVYVLPPPEEEMTKKQVTLTCMVTDFMPEDIYVEWTNNGKTELNYKNTEPVLDSDGSYFMYSKLRVEKKNWVERNSYSCSVVHEGLHNHHTTKSFSRTPGK
light: DIQMTQPSSLSASPGASASLTCTLRSDISVGFHRIYWYQQKPGSPPQYLLRYKSDSDKQQGSGVPSRFSGSKDASANAGILLISGLQSDDEADYYCVIWHTSGVVFGGGTKVEIKRTVAAPSVFIFPPSDEQLKSGTASVVCLLNNFYPREAKVQWKVDNALQSGNSQESVTEQDSKDSTYSLSSTLTLSKADYEKHKVYACEVTHQGLSSPVTKSFNRGEC
As to B2, the “cell proliferation / cell viability” value in test [2] is on record as “reduced depending on antibody concentration”.

B3: G2-4: hybridoma antibody against peptide AA 347-366 of human GP73 (sGP73); VH/VL SEQ ID NOs: 18 and 19 (antibody, V domains shown)
VH: QVQLEESGGGLVQPGGSLRLSCATSGFTFTDYYMSWVRQPPGKALEWLGFIRNKAKGYTTEYSASVKGRFTISRDNSQSILYLQMNTLRAEDSATYYCARDPSTNYWYFDVWGAGTTVTVSS
VL: DIVLTQSPSSLAVSAGEKVTMTCKSSQSLLNSRTRKNYLAWYQQKPGQSPKLLIYWASTRESGVPDRFTGSGSGTDFTLTISSVQAEDLAVYYCKQSYNLYTFGGGTKLEIKR
modifications: G2-4 heavy chain variable region (VH); G2-4 light chain variable region (VL)
On to B3, for which the “effect of conditioned media containing soluble GP73 on antibody internalization / cell surface binding” value in test [3] was “reduces antibody binding; also recorded: reduces internalization”.

For the origin of these results see patent US11697680B2, “Anti-GP73 antibodies and immunoconjugates” (CUREAB GMBH, priority 2016, dated 2023).
